Test results from US20120141505A1 (published 2012).

Tests used:
[1] = target: T1, human CD19 expressed on transfected DT40 chicken B-lymphoma cells (DT40hCD19+) (human, UniProt P15391 20-556); assay: flow cytometry, biotin-labeled CD19-L plus Avidin-FITC
T1 construct: Human CD19 cDNA under a chicken actin promoter (pApuro) in DT40 cells; also called human CD19 co-receptor
T1 sequence: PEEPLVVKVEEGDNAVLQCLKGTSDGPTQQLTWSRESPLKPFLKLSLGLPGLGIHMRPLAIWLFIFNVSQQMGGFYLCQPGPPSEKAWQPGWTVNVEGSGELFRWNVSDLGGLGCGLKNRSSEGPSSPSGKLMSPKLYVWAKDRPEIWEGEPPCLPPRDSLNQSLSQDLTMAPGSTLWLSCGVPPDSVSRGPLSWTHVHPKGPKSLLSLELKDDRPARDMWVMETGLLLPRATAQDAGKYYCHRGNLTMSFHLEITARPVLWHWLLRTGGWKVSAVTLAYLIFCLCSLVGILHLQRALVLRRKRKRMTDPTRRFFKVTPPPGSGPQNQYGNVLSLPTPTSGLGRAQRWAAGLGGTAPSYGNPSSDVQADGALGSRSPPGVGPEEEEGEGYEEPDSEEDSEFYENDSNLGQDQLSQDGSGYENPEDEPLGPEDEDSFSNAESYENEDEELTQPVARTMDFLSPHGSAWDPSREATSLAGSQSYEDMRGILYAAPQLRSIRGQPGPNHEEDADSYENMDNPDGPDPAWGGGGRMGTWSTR
Excerpt: (§1) Binding of biotin-labeled soluble CD19-L protein to the surface of CD19 co-receptor positive cells was examined using immunofluorescence staining combined with flow cytometry and deconvolution microscopy.

[2] = target: T2, CD19 co-receptor on CD19+ human B-lineage ALL cells (primary leukemic cells; NALM-6 cell line) (human, UniProt P15391 20-556); assay: deconvolution microscopy, biotin-labeled CD19-L plus Avidin-FITC
T2 construct: Endogenous CD19 on leukemia cells
T2 sequence: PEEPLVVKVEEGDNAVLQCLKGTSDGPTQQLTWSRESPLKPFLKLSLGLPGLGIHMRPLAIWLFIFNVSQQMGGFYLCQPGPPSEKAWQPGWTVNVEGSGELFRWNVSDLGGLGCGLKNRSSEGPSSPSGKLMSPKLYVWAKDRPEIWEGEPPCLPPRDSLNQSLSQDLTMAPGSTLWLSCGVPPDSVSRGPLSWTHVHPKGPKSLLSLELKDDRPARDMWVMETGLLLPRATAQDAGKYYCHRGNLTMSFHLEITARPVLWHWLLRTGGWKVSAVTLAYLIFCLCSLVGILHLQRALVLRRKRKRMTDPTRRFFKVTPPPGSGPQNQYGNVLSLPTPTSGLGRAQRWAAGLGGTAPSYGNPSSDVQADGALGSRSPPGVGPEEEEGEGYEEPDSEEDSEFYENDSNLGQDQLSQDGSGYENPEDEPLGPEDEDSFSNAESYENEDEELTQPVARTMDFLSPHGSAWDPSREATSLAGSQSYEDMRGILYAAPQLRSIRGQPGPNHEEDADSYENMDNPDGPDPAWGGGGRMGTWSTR
Method: Deconvolution microscopy was performed using the Deltavision deconvolution system from Applied Precision which consists of a Nikon TE200 inverted microscope outfitted for epifluorescence and fitted with an Applied Precision nanomover stage for precise control of the stage. Image collection was through a Photometrics CH350/L liquid cooled CCD camera. The system was controlled by SoftWoRx imaging software run on a Silicon Graphics O2 workstation.
as §1

binding result [1]: binds
binding result [2]: binds
B1: biotin-labeled soluble recombinant human CD19-L protein (ligand)
chain: MYMSMTEPSQDYVPASQSYPGPSLESEDFNIPPITPPSLQDHSLVHLNEVESGYHSLCHPMNHNGLLPFHPQNMDLPEITVSNMLGQDGTLLSNSISVMPDIRNPEGTQYSSHPQMAAMRPRGQPAQIRQQPGMMPHGQLTTINQSQLSAQLGLNMGGSNVPHNSPSPPGSKSATPSPSSSVHEDEGDDTSKINGGEKRPASDMGKKPKTPKKKKKKDPNEPQKPVSAYALFFRDTQAAIKGQNPNATFGEVSKIVASMWDGLGEEQKQVYKKKTEAAKKEYLKQLAAYRASLVSKSYSEPVDVKTSQPPQLINSKPSVFHGPSQAHSALYLSSHYHQQPGMNPHLTAMHPSLPRNIAPKPNNQMQVTVSIANMAVSPPPPLQISPPLHQHLNMQQHQPLTMQQPLGNQLPMQVQSALHSPTMQQGFTLQPDYQTIINPTSTAAQVVTQAMEYVRSGCRNPPPQPVDWNNDYCSSGGMQRDKALYLT
modifications: biotin-labeled (sites not given) ; Biotin-labelled; sites and chemistry not stated.
notes: Same recombinant protein as m1, labelled with biotin and detected with Avidin-FITC; also called biotin-labeled CD19-L; biotin-labeled soluble CD19-L protein; not shown: N-terminal pFastBacHT leader (6xHis tag, spacer region, rTEV cleavage site)
